Biological target: T1, SARS-CoV spike protein as made in Vero E6 cells infected with SARS-CoV (SARS-CoV, UniProt P59594 14-1255)
T1 construct: whole, on cells
Assay: IFA on Vero E6 cells infected with SARS-CoV

Binder	binding result
Monoclonal antibody (mAb) 8a-1 (antibody, V domains shown, also called clone 8a-1; first antibody) VH: EVQLQESGGGLVQPGGSLKLSCAASGFTFSSYTMSWVRQTPEKRLEWVAYISNGGGSISYPDTVKGRFTISRDNAKNTLYLHMSSLKSEDTAMYHCAREGLRPGDRDRYYAMDYWGQGTSVTVSS VL: DIVITQSPALMAAFPGDRVTITCSVSSSVSSSNLHWYRQKSETSPKPWIYGTSTLASGVPVRFSGSGSGTSYSLTISSMEAEDAATYYCQQWSSYPLTFGAGTKLELKR	binds
Monoclonal antibody (mAb) 27b-2 (antibody, V domains shown, also called clone 27b-2; second antibody) VH: EVQLQESGGGLVKLGGSLKLSCAASGFTFSTYYMSWVRQTPEKRLELVAAINSNGGGTYYPDNVKGRFTISRDNAKNTLYLQMSSLKSEDTALYYCTNYFGSTYAMDYWGQGTSVTVSS VL: DIVLTQSPLSLPVSLGDQASISCRSSQSLVHSNGNTYLHWYLQKPGQSPKLLIYKVSNRFSGVPDRFSGSGLGTDFTLKIIRVEAEDLGVYFCSQNTHVPFTFGSGTKLEIKR	binds
